Measured values as given in patent US20210380667A1 (NOVOZYMES A S, published 2021).
Substitutions are numbered along the chain they refer to. Names and notes keep the numbering of the source.

T1: B. lentus protease having SEQ ID NO: 2 (Savinase) (Bacillus lentus, UniProt P29600 1-269)
T1 sequence: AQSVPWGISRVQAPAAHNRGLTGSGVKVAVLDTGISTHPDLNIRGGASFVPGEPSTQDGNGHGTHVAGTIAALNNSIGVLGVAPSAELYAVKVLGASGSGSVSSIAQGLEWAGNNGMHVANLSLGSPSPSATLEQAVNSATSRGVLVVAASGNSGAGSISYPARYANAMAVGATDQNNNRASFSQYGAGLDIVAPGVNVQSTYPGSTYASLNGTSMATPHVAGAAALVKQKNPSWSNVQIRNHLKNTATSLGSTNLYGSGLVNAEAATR

B1: CI-2A variant (CI08) K21H+P25S+E26H+K30H+E33H (protein)
chain: HNLHTEWSHLVGHSVHEAKKVILQDKPEAQIIVLPVGTIVTMEYRIDRVRLFVDKLDNIAQVPRVG
B2: CI-2A variant (CI10) K30H+E33H+K43H+P44A+P52A, P01053 19-84 (protein)
chain: B1 chain with H4K, S8P, H9E, K26H, P27A, P35A
B3: CI-2A wildtype having the amino acid sequence of the mature protein of SEQ ID NO:1 (barley chymotrypsin inhibitor 2a) (other)
chain: B1 chain with H4K, S8P, H9E, H13K, H16E

Columns and labels:
[1] = molecular target: B. lentus protease variant having the amino acid sequence of SEQ ID NO: 2 with the substitutions S9E N43R N76D V205I Q206L Y209W S259D N261W L262E (Bacillus lentus), P29600; test: cell-based or functional assay
[2] = molecular target: T1, B. lentus protease having SEQ ID NO: 2 …; test: cell-based or functional assay

pH value at which the released protease activity peaks [1] [pH] | pH value at which the released protease activity peaks [2] [pH] | Binder
3.5 to 4 | – | B1
3.5 to 4 | – | B2
3 | ~3.5 | B3
